How the values were obtained:
[1] = molecular target: Ef-SOD1b (Euplotes focardii Cu,Zn superoxide dismutase 1b) (Euplotes focardii); assay: SEC-MALS; 200 µl of protein (1 mg/ml) on Superose12 10/300 GL; 50 mM sodium phosphate buffer, NaCl 150 mM, pH 7.5
[2] = molecular target: Ef-SOD2^Δ (Euplotes focardii Mn superoxide dismutase without its mitochondrial signal peptide) (Euplotes focardii); assay: as above
[3] = molecular target: Ef-SOD1a^Δ (Euplotes focardii Cu,Zn superoxide dismutase 1a without its signal peptide) (Euplotes focardii); assay: SEC; comparison of the SEC chromatographic profiles of Ef-SOD1a and Ef-SOD1b; data not shown

Substance: Ef-SOD1b (Euplotes focardii Cu,Zn superoxide dismutase 1b) (enzyme)
- stoichiometry N [1]: 2

Substance: Ef-SOD2^Δ (Euplotes focardii Mn superoxide dismutase without its mitochondrial signal peptide) (enzyme)
- stoichiometry N [2]: 4

Substance: Ef-SOD1a^Δ (Euplotes focardii Cu,Zn superoxide dismutase 1a without its signal peptide) (enzyme)
- stoichiometry N [3]: 2

— publication PMC6170424
